Data taken from patent US20210206841A1 (RESEARCH INSTITUTE AT NATIONWIDE CHILDREN S HOSPITAL, published 2021).

T1: native IHFNTHI (integration host factor of nontypeable Haemophilus influenzae) (nontypeable Haemophilus influenzae …, UniProt P43723 1-96; P43724 1-94)
T1 construct: also called NTHI IHF
T1 sequence 1: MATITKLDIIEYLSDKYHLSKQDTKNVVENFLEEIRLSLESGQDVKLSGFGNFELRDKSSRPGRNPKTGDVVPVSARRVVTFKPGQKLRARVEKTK
T1 sequence 2: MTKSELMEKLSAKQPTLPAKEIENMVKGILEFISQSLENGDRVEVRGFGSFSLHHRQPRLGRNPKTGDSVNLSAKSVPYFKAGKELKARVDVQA

T2: tip-chimeric peptide IhfA5-mIhfB4NTHI (nontypeable Haemophilus influenzae …)
T2 construct: also called IHF(NTHI) tip chimeric peptide; IHFNTHI tip chimeric peptide
T2 peptide: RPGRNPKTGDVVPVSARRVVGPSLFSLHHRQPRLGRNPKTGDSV

T3: tail-chimeric peptide IhfA3-IhfB2NTHI (nontypeable Haemophilus influenzae …)
T3 construct: also called IHF(NTHI) tail chimeric peptide; IHFNTHI tail chimeric peptide
T3 peptide: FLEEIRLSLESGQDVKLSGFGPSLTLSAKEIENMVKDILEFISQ


Legend:
[1] = molecular target: T1, native IHFNTHI (integration host factor …); experiment: SPR Biacore 3000, IHFNTHI immobilized, HuMab as analyte
[2] = molecular target: T2, tip-chimeric peptide IhfA5-mIhfB4NTHI; experiment: direct ELISA #1, peptide coated (curves not reaching equilibrium)
[3] = molecular target: T2, tip-chimeric peptide IhfA5-mIhfB4NTHI; experiment: SPR Biacore 3000, HuMab immobilized, peptide as analyte
[4] = molecular target: T2, tip-chimeric peptide IhfA5-mIhfB4NTHI; experiment: direct binding ELISA: tip chimeric peptide coated at 2 ug/mL, antibody titrated 1:3 in 8 points, anti-human IgG Fc-HRP, absorbance at 450 nm [panel B]
[5] = molecular target: T2, tip-chimeric peptide IhfA5-mIhfB4NTHI; experiment: direct ELISA #2, peptide coated (curves reaching equilibrium)
[6] = molecular target: T2, tip-chimeric peptide IhfA5-mIhfB4NTHI; experiment: SPR Biacore 3000, peptide immobilized, HuMab as analyte
[7] = molecular target: T1, native IHFNTHI (integration host factor …); experiment: SPR Biacore 3000, HuMab immobilized, IHFNTHI as analyte
[8] = molecular target: T3, tail-chimeric peptide IhfA3-IhfB2NTHI; experiment: direct ELISA #2, peptide coated (curves reaching equilibrium)
[9] = molecular target: T3, tail-chimeric peptide IhfA3-IhfB2NTHI; experiment: SPR Biacore 3000, HuMab immobilized, peptide as analyte
[10] = molecular target: T3, tail-chimeric peptide IhfA3-IhfB2NTHI; experiment: direct ELISA #1, peptide coated (curves not reaching equilibrium)
[11] = molecular target: T3, tail-chimeric peptide IhfA3-IhfB2NTHI; experiment: SPR Biacore 3000, peptide immobilized, HuMab as analyte
[12] = molecular target: T1, native IHFNTHI (integration host factor …); experiment: SPR Biacore 3000, HuMab immobilized, IHFNTHI as analyte; remark: listed apart in the source

Binder | EC50 [8] | Kd [9] | koff [9] | kon [9] | EC50 [10] | Kd [11] | koff [11] | kon [11] | Kd [12] | koff [12] | kon [12] | also measured
humanized anti-tip monoclonal antibody, heavy chain SEQ ID NO: 3 and light chain SEQ ID NO: 8 (antibody, V domains shown, also called H10212 (1F8.F1 Humanized HC3) + L10211 (1F8.F1 Humanized LC2)) VH: EVKLVQSGAEVKKPGASVKVSCKASGFTFRTYAMSWVRQAPGQRLEWVATIGSDRRHTYYPDKFQGRVTITRDNAKNTLYMELSSLRSEDTAVYYCVGPYDGYYGEFDYWGQGTLVTVSS VL: DVVMTQSPLSLPVTLGQPASISCRSSQSLLDSDGKTFLNWLQQRPGQSPRRLIYLVSKRDSGVPDRFSGSGSGTDFTLKISRVEAEDVGVYYCWQGTHFPYTFGQGTKLEIKR | – | – | – | – | – | – | – | – | – | – | – | Kd [1]: 115 nM; koff [1]: 0.00021 s⁻¹; kon [1]: 1800 M⁻¹ s⁻¹; EC50 [2]: 0.066 µg/mL; Kd [3]: 20 nM; koff [3]: 0.0019 s⁻¹; kon [3]: 95000 M⁻¹ s⁻¹; EC50 [4]: 0.086 µg/mL; EC50 [5]: 0.0934 µg/mL; Kd [6]: 7 nM; koff [6]: 0.00035 s⁻¹; kon [6]: 51000 M⁻¹ s⁻¹; Kd [7]: 245 nM; koff [7]: 0.0018 s⁻¹; kon [7]: 7500 M⁻¹ s⁻¹
humanized anti-tail monoclonal antibody, heavy chain SEQ ID NO: 4 and light chain SEQ ID NO: 10 (antibody, V domains shown, also called HuTailMab; TP-21958) VH: EVQLVESGGGLVKPGGSLRLSCAASGFTFSRYGMSWVRQAPGKGLEWVATISSGGSYTYYTDSVKGRFTISRDNAKNSLYLQMNSLRAEDTAVYYCERHGGDGYWYFDVWGQGTMVTVSS VL: DIQMTQSPSSLSASVGDRVTITCRASQDISNYLNWYQQKPGKAVKLLIYYTSRLHSGVPSRFSGSGSGTDYTLTISSLQPEDFATYFCQQGNPLRTFGGGTKVEIKR | 0.0427 µg/mL | 29.6 nM | 0.00033 s⁻¹ | 11000 M⁻¹ s⁻¹ | 0.01 µg/mL | 4.3 nM | 0.00064 s⁻¹ | 150000 M⁻¹ s⁻¹ | ~5.6 nM | 0.00043 s⁻¹ | 77000 M⁻¹ s⁻¹ | –
humanized anti-tail monoclonal antibody, heavy chain SEQ ID NO: 6 and light chain SEQ ID NO: 12 (antibody, V domains shown, also called H10215 (11E7.C7 Humanized HC3) + L10215 (11E7.C7 Humanized LC3)) VH: EVQLVESGGGLVQPGRSLRLSCTASGFTFSRYGMSWVRQAPGKGLEWVATISSGGSYTYYTDSVKGRFTISRDNAKNILYLQMNSLKTEDTAVYYCERHGGDGYWYFDVWGQGTMVTVSS VL: DIVMTQSPATLSLSPGERATLSCRASQDISNYLNWYQQKPGQAVRLLIYYTSRLHSGIPARFSGSGSGTDYTLTISSLEPEDFAVYFCQQGNPLRTFGGGTKVEIKR | 0.0294 µg/mL | 13 nM | 0.0021 s⁻¹ | 160000 M⁻¹ s⁻¹ | 0.008 µg/mL | 2.4 nM | 0.0006 s⁻¹ | 250000 M⁻¹ s⁻¹ | ~143 nM | 0.0011 s⁻¹ | 7700 M⁻¹ s⁻¹ | –
humanized anti-tail monoclonal antibody, heavy chain SEQ ID NO: 6 and light chain SEQ ID NO: 10 (antibody, V domains shown, also called H10215 (11E7.C7 Humanized HC3) + L10213 (11E7.C7 Humanized LC1)) VH: EVQLVESGGGLVQPGRSLRLSCTASGFTFSRYGMSWVRQAPGKGLEWVATISSGGSYTYYTDSVKGRFTISRDNAKNILYLQMNSLKTEDTAVYYCERHGGDGYWYFDVWGQGTMVTVSS VL: DIQMTQSPSSLSASVGDRVTITCRASQDISNYLNWYQQKPGKAVKLLIYYTSRLHSGVPSRFSGSGSGTDYTLTISSLQPEDFATYFCQQGNPLRTFGGGTKVEIKR | 0.0274 µg/mL | 72 nM | 0.0013 s⁻¹ | 18000 M⁻¹ s⁻¹ | 0.013 µg/mL | 2.5 nM | 0.00046 s⁻¹ | 180000 M⁻¹ s⁻¹ | 18 nM | 0.00073 s⁻¹ | 25000 M⁻¹ s⁻¹ | –
humanized anti-tail monoclonal antibody, heavy chain SEQ ID NO: 5 and light chain SEQ ID NO: 12 (antibody, V domains shown, also called H10214 (11E7.C7 Humanized HC2) + L10215 (11E7.C7 Humanized LC3)) VH: EVQLVESGGGLVKPGGSLRLSCAASGFTFSRYGMSWVRQAPGKGLEWVSTISSGGSYTYYTDSVKGRFTISRDNAKNSLYLQMNSLRAEDTAVYYCERHGGDGYWYFDVWGQGTMVTVSS VL: DIVMTQSPATLSLSPGERATLSCRASQDISNYLNWYQQKPGQAVRLLIYYTSRLHSGIPARFSGSGSGTDYTLTISSLEPEDFAVYFCQQGNPLRTFGGGTKVEIKR | 0.0429 µg/mL | 23 nM | 0.00044 s⁻¹ | 20000 M⁻¹ s⁻¹ | 0.015 µg/mL | 9.1 nM | 0.00077 s⁻¹ | 85000 M⁻¹ s⁻¹ | 39 nM | 0.0012 s⁻¹ | 33000 M⁻¹ s⁻¹ | –
humanized anti-tail monoclonal antibody, heavy chain SEQ ID NO: 5 and light chain SEQ ID NO: 11 (antibody, V domains shown, also called H10214 (11E7.C7 Humanized HC2) + L10214 (11E7.C7 Humanized LC2)) VH: EVQLVESGGGLVKPGGSLRLSCAASGFTFSRYGMSWVRQAPGKGLEWVSTISSGGSYTYYTDSVKGRFTISRDNAKNSLYLQMNSLRAEDTAVYYCERHGGDGYWYFDVWGQGTMVTVSS VL: DIQMTQSPSSLSASVGDRVTITCRASQDISNYLNWYQQKPGKAVKLLIYYTSRLHSGVPSRFSGSGSGTDYTLTISSLQPEDFATYYCQQGNPLRTFGGGTKVEIKR | 0.0339 µg/mL | 47 nM | 0.00027 s⁻¹ | 5700 M⁻¹ s⁻¹ | 0.014 µg/mL | 6.2 nM | 0.00076 s⁻¹ | 120000 M⁻¹ s⁻¹ | ~4.4 nM | 0.00061 s⁻¹ | 140000 M⁻¹ s⁻¹ | –
humanized anti-tail monoclonal antibody, heavy chain SEQ ID NO: 4 and light chain SEQ ID NO: 11 (antibody, V domains shown, also called H10213 (11E7.C7 Humanized HC1) + L10214 (11E7.C7 Humanized LC2)) VH: EVQLVESGGGLVKPGGSLRLSCAASGFTFSRYGMSWVRQAPGKGLEWVATISSGGSYTYYTDSVKGRFTISRDNAKNSLYLQMNSLRAEDTAVYYCERHGGDGYWYFDVWGQGTMVTVSS VL: DIQMTQSPSSLSASVGDRVTITCRASQDISNYLNWYQQKPGKAVKLLIYYTSRLHSGVPSRFSGSGSGTDYTLTISSLQPEDFATYYCQQGNPLRTFGGGTKVEIKR | 0.0408 µg/mL | 62.2 nM | 0.00027 s⁻¹ | ~4300 M⁻¹ s⁻¹ | 0.011 µg/mL | 4.9 nM | 0.00068 s⁻¹ | 140000 M⁻¹ s⁻¹ | ~5.3 nM | 0.00053 s⁻¹ | 100000 M⁻¹ s⁻¹ | –
humanized anti-tail monoclonal antibody, heavy chain SEQ ID NO: 5 and light chain SEQ ID NO: 10 (antibody, V domains shown, also called H10214 (11E7.C7 Humanized HC2) + L10213 (11E7.C7 Humanized LC1)) VH: EVQLVESGGGLVKPGGSLRLSCAASGFTFSRYGMSWVRQAPGKGLEWVSTISSGGSYTYYTDSVKGRFTISRDNAKNSLYLQMNSLRAEDTAVYYCERHGGDGYWYFDVWGQGTMVTVSS VL: DIQMTQSPSSLSASVGDRVTITCRASQDISNYLNWYQQKPGKAVKLLIYYTSRLHSGVPSRFSGSGSGTDYTLTISSLQPEDFATYFCQQGNPLRTFGGGTKVEIKR | 0.0367 µg/mL | 60 nM | 0.00029 s⁻¹ | 4800 M⁻¹ s⁻¹ | 0.007 µg/mL | 6.1 nM | 0.00082 s⁻¹ | 130000 M⁻¹ s⁻¹ | ~3.6 nM | 0.00057 s⁻¹ | 160000 M⁻¹ s⁻¹ | –
humanized anti-tail monoclonal antibody, heavy chain SEQ ID NO: 6 and light chain SEQ ID NO: 11 (antibody, V domains shown, also called H10215 (11E7.C7 Humanized HC3) + L10214 (11E7.C7 Humanized LC2)) VH: EVQLVESGGGLVQPGRSLRLSCTASGFTFSRYGMSWVRQAPGKGLEWVATISSGGSYTYYTDSVKGRFTISRDNAKNILYLQMNSLKTEDTAVYYCERHGGDGYWYFDVWGQGTMVTVSS VL: DIQMTQSPSSLSASVGDRVTITCRASQDISNYLNWYQQKPGKAVKLLIYYTSRLHSGVPSRFSGSGSGTDYTLTISSLQPEDFATYYCQQGNPLRTFGGGTKVEIKR | 0.028 µg/mL | 67 nM | 0.0013 s⁻¹ | 33000 M⁻¹ s⁻¹ | 0.011 µg/mL | 1 nM | 0.00016 s⁻¹ | 160000 M⁻¹ s⁻¹ | ~14.8 nM | 0.00068 s⁻¹ | 46000 M⁻¹ s⁻¹ | –
